The values that follow come from patent publication US20250179196A1 (Janssen / Centocor, published 2025).

Assay [1] concerns the target T1, rat IL-23R extracellular domain (ECD) protein (rat).
T1 construct: also called rat IL-23R ECD; F1LX96 amino acids 24-354
T1 chain: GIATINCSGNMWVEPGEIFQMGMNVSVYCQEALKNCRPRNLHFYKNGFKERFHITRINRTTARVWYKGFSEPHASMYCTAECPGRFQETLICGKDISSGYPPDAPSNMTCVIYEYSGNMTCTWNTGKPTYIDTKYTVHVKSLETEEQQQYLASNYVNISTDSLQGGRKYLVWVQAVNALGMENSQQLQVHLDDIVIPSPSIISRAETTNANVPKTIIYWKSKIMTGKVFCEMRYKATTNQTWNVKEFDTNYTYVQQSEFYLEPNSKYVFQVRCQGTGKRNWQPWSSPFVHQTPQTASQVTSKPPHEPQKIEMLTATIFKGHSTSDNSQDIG
Briefly: SPR Biacore 8K, supernatant. Here is the method: (§1) Affinity by SPR using Biacore 8K. Affinity measurements using Surface Plasmon Resonance (SPR) were performed using a Biacore 8K system (Cytiva). […] Approximately 9000-10000 RU (response units) of mAbs were immobilized. The kinetic experiments were performed at 25° C. in running buffer 1× of (HBS-P+ Buffer 10× (Cytiva #BR100671)+100 μg/ml BSA). To perform kinetic experiments, approximately 150 RU of mAbs were captured followed by injections of human IL-23R or rat IL-23R at concentrations ranging from 0.8 nM to 500 nM (in a 5-fold serial dilution). The association phase was monitored for 3 minutes at 50 μL/min, then followed by 30 minutes of buffer flow (dissociation phase). […] The collected data were processed using Biacore insight Evaluation software (Version 3.0.12.15655). The kinetic analysis of the data was performed using a Langmuir 1:1 binding model. The result for each mAb was reported in the format of Ka (On-rate), Kd (Off-rate) and KD (equilibrium dissociation constant).
On the technique in general: In SPR one partner is held on a chip, and binding of the other changes the refractive index at the surface.

In assay [2] the target is T2, Recombinant human IL-23 receptor (IL-23R) extracellular domain (ECD) protein (human, UniProt Q5VWK5 24-355).
T2 construct: also called human IL-23R ECD; hu IL-23R ECD
T2 sequence: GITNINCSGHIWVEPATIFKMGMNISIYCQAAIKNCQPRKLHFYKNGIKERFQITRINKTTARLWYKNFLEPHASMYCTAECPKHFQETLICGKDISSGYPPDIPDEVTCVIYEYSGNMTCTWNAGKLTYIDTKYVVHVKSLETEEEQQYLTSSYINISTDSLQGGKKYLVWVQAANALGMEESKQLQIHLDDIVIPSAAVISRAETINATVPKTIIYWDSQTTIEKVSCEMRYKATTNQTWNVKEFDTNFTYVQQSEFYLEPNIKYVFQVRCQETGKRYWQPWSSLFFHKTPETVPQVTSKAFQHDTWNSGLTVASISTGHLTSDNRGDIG
Briefly: SPR Biacore 8K, supernatant, analysis 1. Here is the method: as §1

Assay [3] has as its target T2, Recombinant human IL-23 receptor …. In words: SPR Biacore 8K, supernatant, analysis 2. As to the method: as §1

B1: I23RB61 (antibody, mouse IgG2a, kappa, V domains shown)
VH: DVQLQESGAELVKPGASVKLSCKSFDYTFTSFDINWMKQRPGQGLEWIGWIFPGSGTTNYNEKFKGKATLTADKSSSTAYMHLTSLTSEDSAVYFCARRLTGTRYFDVWGTGTTLTVSS
VL: DIQMTQSHKFLSTSVGDRITITCKASQDVITAVAWYQQKSGQSPKLLIYWASTRHTGVPDRFTGSGSGTDYTLTISNVQAEDLALYYCQQHYTTPPTFGAGTKLELKR
notes: mouse immunization; mouse IgG2a/kappa
As to B1, the binding result in assay [1] is recorded as “no binding (tested: 500 nM)”. For the same molecule, in assay [2], the Kd – broadly, the equilibrium constant for the complex coming apart – amounted to 22.1 nM; the koff – broadly, a measure of how fast the partners let go of each other – was found to be 0.0101 s⁻¹; the kon (commonly the second-order rate constant of association) was found to be 459000 M⁻¹ s⁻¹. In assay [3], the dissociation constant (Kd) was found to be 5.5 nM, the koff amounted to 0.00195 s⁻¹ and the kon was 355000 M⁻¹ s⁻¹.

B2: I23RB267 (antibody, mouse IgG2a, kappa, V domains shown)
VH: EVQLVQSGAEVKKPGESLKISCKGSGYSFTSYWIGWVRQMPGKGLEWMGIIYPGDSDTRYSPSFQGQVTISADKSISTAYLQWSSLKASDTAMYYCARVWYSSWDLDYWGQGTLVTVSS
VL: not shown
notes: phage display; human V regions, mouse IgG2a/kappa constant regions
On to B2, for which the binding result in assay [1] is listed as “no binding (tested: 500 nM)”. For the same molecule, in assay [2], the Kd was 18.1 nM, the koff was determined as 0.000196 s⁻¹ and the kon worked out at 10800 M⁻¹ s⁻¹. Moreover, in assay [3], the Kd stood at 7.56 nM, the koff stood at 0.000178 s⁻¹ and the kon was found to be 23500 M⁻¹ s⁻¹.

B3: I23RB60 (antibody, mouse IgG2a, kappa, V domains shown)
VH: DVQLQESGPELVKPGDSVKMSCEASGYTFTDYYIDWVKQSHGKSLEWIGYIYPNNGGISFNQKFEGKATLTVDKSSSTAYMELHSLTSEDSAVYYCAREKLRGRDYWGQGTTLTVSS
VL: DIVMTQSTSSLSASLGDRVTISCRASQDIRNNLNWYQQKPDGTVKLLIFYSSRLHSGVPSRFSGSGSGTDYSLTISNLEQEDIATYFCQQGHTLPWTFGAGTKLELKR
notes: as for B1
Take B3: the binding result in assay [1] is listed as “no binding (tested: 500 nM)”. Further, in assay [2], the Kd came out at 0.731 nM, the koff amounted to 0.000218 s⁻¹ and the kon came to 298000 M⁻¹ s⁻¹. Also, in assay [3], the Kd was 0.466 nM, the koff was 0.000169 s⁻¹ and the on-rate constant (kon) was 362000 M⁻¹ s⁻¹.

B4: I23RB93 (antibody, mouse IgG2a, kappa, V domains shown)
VH: QVQLKESGPGLVQPSQSLSITCTVSGFSLTSYGVHWVRQSPGKGLEWLGVIWSGVSTDYNAAFISRLSISKDNSKSQVFFKMNSLQADDTAIYYCARSRGSYYFDYWGQGTTLTVSS
VL: DIKMTQSPATLSVTPGDSVSLFCRASQSISNNLHWYQQKSHESPRLLIKYASQSISGIPSRFSGSGSGTDFTLSINSVETEDFGMYFCQQSNSWPLTFGGGTKLEIKR
notes: as for B1
With B4, in assay [1], the binding result is on record as “no binding (tested: 500 nM)”. In assay [2], the Kd was 2.88 nM, the koff was 0.00138 s⁻¹ and the kon was 480000 M⁻¹ s⁻¹. In assay [3], the Kd was 2.9 nM, the koff was found to be 0.00123 s⁻¹ and the kon is 423000 M⁻¹ s⁻¹.

B5: I23RB98 (antibody, mouse IgG2a, kappa, V domains shown)
VH: EFQLQQSGPELVKPGASVKMSCKASGYTFTNYYMHWVKQSHGKTIEWIGYIYPNSGDTSYNQKFKGKATLTVDKSSSTAYMELRSLTSEDSAVYTCARFGGFYDAMDYWGQGTTVTVSS
VL: DIVLTQSPAIMSASLGERVTMTCTASSSVSSSYLHWYQQKPGSSPKLWIYSTSNLASGVPARFSGSGSGTSYSLTISSMEAEDAATYYCHQYHRSPFTFGSGTKLEMKR
notes: as for B1
With B5, the binding result in assay [1] was “no binding (tested: 500 nM)”. For the same molecule, in assay [2], the Kd is 39.1 nM, the koff was determined as 0.00294 s⁻¹ and the kon turned out to be 75100 M⁻¹ s⁻¹. In addition, in assay [3], the Kd came to 25.8 nM, the koff amounted to 0.0035 s⁻¹ and the on-rate constant (kon) worked out at 136000 M⁻¹ s⁻¹.

B6: I23RB57 (antibody, mouse IgG2a, kappa, V domains shown)
VH: EFQLQQSGPELVKPGASVKMSCKASGYTFTNYYMHWVKQSHGKTIEWIGYIYPNSGDTSYNQKFKGKATLTVDKSSSTAYMELRSLTSEDSAVYNCARFGGFYDAMDYWGQGTSVTVSS
VL: DIVMTQSPAIMSASLGERVTMTCTASSSVSSSYLHWYQQKPGSSPKLWIYSTSNLASGVPARFSGSGSGTSYSLTISSMEAEDAATYYCHQYHRSPFTFGSGTKLEIKR
notes: as for B1
Turning to B6, in assay [1], the binding result is given as “no binding (tested: 500 nM)”. For the same molecule, in assay [2], the Kd turned out to be 29.2 nM, the koff was found to be 0.00299 s⁻¹ and the kon was found to be 102000 M⁻¹ s⁻¹. In assay [3], the Kd was determined as 38.1 nM, the koff was 0.00307 s⁻¹ and the kon is 80700 M⁻¹ s⁻¹.

B7: I23RB83 (antibody, mouse IgG2a, kappa, V domains shown)
VH: DVQLQESGPGLVAPSQSLSITCTVSGFSLTNYDVHWVRQSPGKGLEWLGVIWSDGSTDYNAAFISRLSFSKDNSKRQVFFKMNSLQPDDTAIYYCARNNYYRYGRNPMDYWGQGTTVTVSS
VL: DIQMTQSPASQSASLGESVTITCLASQTIGSWLAWYQQKPGKSPQLLIYAATSLADGVPSRFSGSGSGTKFSFKISSLQAEDFVSYYCQQLYSSPLTFGGGTKLEIKR
notes: as for B1
On to B7, for which, in assay [1], the binding result is reported as “no binding (tested: 500 nM)”. In addition, in assay [2], the Kd turned out to be 0.366 nM, the koff amounted to 0.000119 s⁻¹ and the kon amounted to 325000 M⁻¹ s⁻¹. Further, in assay [3], the dissociation constant Kd worked out at 0.345 nM, the koff stood at 5.91e-05 s⁻¹ and the kon came out at 172000 M⁻¹ s⁻¹.

B8: I23RB82 (antibody, mouse IgG2a, kappa, V domains shown)
VH: QVQLKESGPGLVAPSQSLSITCTVSGFSLTNYALHWFRQSPGKGLEWLGVIWSDGSTDYNSPFISRLSISKDNSKSQVFFKMNSLQADDTAIYYCARSRSNYGRWYFDVWGAGTTLTVSS
VL: QIVLSQSHKFMSTSVGDRVSITCKASQDVSTAVAWYQQKPGQSPKLLIYSAFYRYTGVPDRFTGSGSGTDFTFTISSVQAEDLAVYYCQQHYSTPYTFGGGTKLEIKR
notes: as for B1
Take B8: the binding result in assay [1] was “no binding (tested: 500 nM)”. For the same molecule, in assay [2], the Kd was 4.67 nM, the koff worked out at 0.00247 s⁻¹ and the kon amounted to 529000 M⁻¹ s⁻¹. Besides, in assay [3], the Kd came to 34.4 nM, the koff is 0.0136 s⁻¹ and the kon came to 397000 M⁻¹ s⁻¹.

B9: I23RB77 (antibody, mouse IgG2a, kappa, V domains shown)
VH: DVQLQESGPGLVAPSQSLSITCTVSGFSLSRYSVHWVRQPPGKGLEWLGMIWGSGSTDYNSALKSRLSINKDNSKSQVFLKMNSLQTDDTAMYYCARVYYGGSPYAMDYWGQGTTVTVSS
VL: DIVMTQSPASLALSLGQRATISCRASESVDSYGNSFMHWYQQKPGQPPKLLIYLASNLESGVPARFSGSGSRTDFTLTIDPVEADDAAIYYCQQNNEEPNTFGAGTKLEMKR
notes: as for B1
B9: in assay [1], the binding result is recorded as “no binding (tested: 500 nM)”. For the same molecule, in assay [2], the Kd turned out to be 1.54 nM, the koff was determined as 0.00214 s⁻¹ and the kon came to 1.39e+06 M⁻¹ s⁻¹. In assay [3], the Kd came out at 18 nM, the koff is 0.01 s⁻¹ and the kon was 556000 M⁻¹ s⁻¹.

B10: I23RB86 (antibody, mouse IgG2a, kappa, V domains shown)
VH: EVQLQQSGAELVKPGASVKLSCKASGYTFTSYWLHWVKQRPGQGLEWIGEIDPSDSYTYYNQKFKGKATLTVDKSSSTAYMQLSSLTSEDSAVYYCARSPYDYDWGAYWGQGTSVTVSS
VL: DIVMTQSPSSMSVSLGDTVSITCHASQGISSNIGWLQQKPGKSFKGLIYHGTNLEDEVPSRFSGSGSGADYSLTIGSLESEDFADYYCVQYAQFPWTFGAGTKLEMKR
notes: as for B1
For the molecule B10, in assay [1], the binding result was “no binding (tested: 500 nM)”. In assay [2], the Kd was 8.06 nM, the koff was found to be 0.000587 s⁻¹ and the kon turned out to be 72800 M⁻¹ s⁻¹. Besides, in assay [3], the Kd was 8.14 nM, the koff stood at 0.000572 s⁻¹ and the association rate constant (kon) was 70300 M⁻¹ s⁻¹.

B11: I23RB73 (antibody, mouse IgG2a, kappa, V domains shown)
VH: EVQLQQSGAELVKPGASVKISCKASGYTFTDHAIHWVKQRPEQGLEWIGYISLGNGDIKYSEKFRGKATLTADKTSNTAYMQLNSLTSEDSAVYFCKRSRVLRWTTYWYFDVWGAGTSVTVSS
VL: DIVMTQSHKFMSTSVGDRVSITCKASQDVSTAVAWYQQKPGQSPKLLIYWASTRLTGVPDRFTGSGSGTDYTLTISSVQAEDLALYYCQQYYNTPLTFGAGTKLELKR
notes: as for B1
For B11, the binding result in assay [1] is on record as “no binding (tested: 500 nM)”. In addition, in assay [2], the Kd came to 11.7 nM, the koff is 0.00378 s⁻¹ and the kon was 322000 M⁻¹ s⁻¹. In assay [3], the Kd came out at 13.7 nM, the koff is 0.00293 s⁻¹ and the kon amounted to 213000 M⁻¹ s⁻¹.
